In assay [1] the test system is aged mice. Nature of the assay: Age-related hearing loss in aged mice. It is filed as in vivo, mouse. The note with it: for ABR threshold vs control animals: 30 mg/kg i.v. weekly for eight weeks. How it is done:
FIGS. 17A, 17B, 17C, and 17D show the therapeutic effect of FAM19A5 antagonists (1-30) on auditory brainstem response (ABR) threshold in an aged mouse model. FIG. 17A provides a schematic of the experimental design. As shown, anti-FAM19A5 antibody (1-30) or control human IgG antibody was administered to the mice (1-year old) intravenously once a week (30 mg/kg per dose) for a total of eight administrations. ABR (i.e., hearing test) was measured both prior to the initial administration of the antibodies and then at one and two months after administration. FIG. 17B provides the results before injection. FIG. 17C provides the results at one month post administration. FIG. 17D provides the results at two months post administration. In each of FIGS. 16B-16D, ABR threshold was measured at a frequency ranging from 4 kHz to 64 kHz.
FIGS. 18A, 18B, and 18C show the therapeutic effect of FAM19A5 antagonists (1-30) as comparison of wave I amplitude profile in an aged mouse model. The mice were treated as shown and described in FIG. 17A. FIG. 18A provides the results before injection. FIG. 18B provides the results at one month post injection. FIG. 18C provides the results at two months post injection. Tone bursts were measured across 0 and 90 dB.
Next, to assess whether the FAM19A5 antagonists provided herein can also treat age-related hearing loss, aged mice (e.g., about 6 months to 1 year in age) were used. […] Then, various hearing parameters (e.g., ABR threshold, DPOAE amplitude, and ABR waveform analysis) were assessed in the animals at one and two months after initial administration.

The test system of assay [2] is noise-induced hearing loss mouse model. The experiment in a line: Noise-induced hearing loss mouse model, first antibody dose 2 hours post noise exposure. It counts as in vivo. The note with it: first dose 2 hours post noise. How it is done:
FIGS. 13A, 13B, 13C, 13D, and 13E show the therapeutic effect of FAM19A5 antagonists (administered 2 hours after noise induction) on auditory brainstem response (ABR) threshold in a noise-induced hearing loss mouse model. The overall design was similar as that provided in FIG. 6A, except that the antibodies were administered to the animals at 2 hours post noise induction. FIG. 13A provides the results before noise exposure. FIG. 13B provides the results at one day post noise exposure. FIG. 13C provides the results at two weeks post noise exposure. FIG. 13D provides the results at four weeks post noise exposure. FIG. 13E provides the results at eight weeks post noise exposure. ABR threshold was measured at a frequency ranging from 4 kHz to 64 kHz.
FIGS. 14A and 14B show the effect of FAM19A5 antagonists on ABR I/O function in a noise-induced hearing loss mouse model. FIG. 14A provides comparisons of wave I amplitude (1st graph) and wave IV amplitude (2nd graph) in animals treated with the anti-FAM19A5 antibody (square), before noise group (triangle) or control IgG antibody (circle) 2 weeks after noise exposure. FIG. 14B provides comparisons of wave I amplitude (1st graph) and wave IV amplitude (2nd graph) in animals treated with the anti-FAM19A5 antibody (square), before noise group (triangle) or control IgG antibody (circle) 4 weeks after noise exposure. Tone bursts were measured across 0 and 90 dB.
Next, to assess whether the timing of the anti-FAM19A5 antibody administration has an effect, the above-described noise-induced hearing loss mouse model was used again. Again, to induce hearing loss, the animals were exposed to a temporary threshold shift (TTS) of 105 decibels for 30 minutes. An anti-FAM19A5 antibody (1-30 antibody) or a control human IgG antibody was intravenously administered to the animals once weekly for 5 total administration (30 mg/kg per dose). […] Hearing loss was assessed (e.g., by measuring ABR threshold, DPOAE threshold, and/or DPOAE amplitude) in the animals prior to the noise exposure and then again at one day, two weeks, and four weeks post noise exposure.

Assay [3] deals with T1, FAM19A5 mutants M1 to M8 (Homo sapiens, UniProt Q7Z5A7).
T1 construct: made in house; host or cells: phage display with helper phage
Nature of the assay: Epitope mapping ELISA with FAM19A5 mutants M1-M8. It counts as binding. How it is done: (§1) To further characterize the binding epitopes of the anti-FAM19A5 antibodies disclosed in the present disclosure, the amino acid sequences for the different FAM19 family members (i.e., FAM19A1-5) were aligned. […] The amino acid sequences of these regions were replaced with the consensus sequence of the corresponding regions for the FAM19A1-4 proteins. See Table 13 (the mutated amino acid residues are bolded and underlined).
(§2) The mutant FAM19A5-expressing phages were prepared as follows. To prepare the media for phage culture, 55.6 ml of 2M Glucose (D-(+)-Glucose, Sigma), 5 mL of 1M MgCl2 (Magnesium chloride, Junsei) 1 mL of 34 mg/mL chloramphenicol (Sigma) were added to 2×YT media. Colonies obtained through mono-phage ELISA were selected and placed in 5 mL of prepared media (2×YT-GMC) to be cultured for 16 hours at 37° C. with shaking incubator (VS-8480, Vision). 100 μL of each culture was transferred to 10 mL 2×YT-GMC individually which were cultured at 37° C. in the incubator until detection value at O.D. 600 nm reached 0.5. Once detection value has reached 0.5 at O.D. 600 nm, 5 mL of each culture were obtained as samples to be infected. Following sample preparation, 50 μL of […] was added to individual samples then incubated at 37° C. without shaking for 30 minutes and with shaking for additional 30 minutes. Individual cultures were centrifuged for 15 minutes at 3,850 rpm using Micro centrifuge (Micro12, Hanil). The supernatants of centrifuged cultures were removed to be kept separate and replaced with 5 mL of 2×YT media containing 1 mL of IM IPTG (AG Scientific), 5 mL of 1M MgCl2.1 ml of 70 μg/μL kanamycin (Biopure) and 1 mL of Chloramphenicol. The resulting pellets were dispersed thoroughly in newly added media followed by incubation at 30° C. for 16 hours with stirring.
On the technique in general: ELISA stands for enzyme-linked immunosorbent assay.

The subject of assay [4] is FAM19A5 mutants M1 to M8. The experiment in a line: Epitope mapping ELISA with FAM19A5 mutants M1-M8. It counts as binding. Here is the method: as §1, §2
For assay [5], the target named is T2, FAM19A5 mutants M1 to M8 (Homo sapiens, UniProt Q7Z5A7, A66V/A69S/K72P/R67K/R71F).
T2 construct: made in house; host or cells: phage display with helper phage
The experiment in a line: Epitope mapping ELISA with FAM19A5 mutants M1-M8. It is filed as binding. How it is done:
as §1, §2

Setting [6] is: 2 and 4 weeks after noise, particularly at higher tone-burst levels.

T2 sequence (Q7Z5A7 26-125 isoform Q7Z5A7-2 A59V/R60K/A62S/R64F/K65P): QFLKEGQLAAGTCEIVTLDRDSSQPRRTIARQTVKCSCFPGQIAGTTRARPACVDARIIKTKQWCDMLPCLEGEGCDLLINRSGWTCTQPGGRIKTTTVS
T1 sequence (Q7Z5A7 with tags, fused parts or gaps isoform Q7Z5A7-2, change not shown): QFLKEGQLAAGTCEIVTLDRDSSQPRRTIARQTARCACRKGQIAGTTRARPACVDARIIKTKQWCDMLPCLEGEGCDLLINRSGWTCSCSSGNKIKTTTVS

B1: 1-30: anti-FAM19A5 antibody, de-immunized variant of 3-2; VH SEQ ID NO: 235, VL SEQ ID NO: 240 (antibody, V domains shown)
VH: AVTLDESGGGLQTPGGALRLSCKASGFDFESFNMFWVRQAPGKGLEYVSQISSSEEDENYAPAVKGRATISRDNGQSTLYLQMNSLRAEDTGTYYCAKSSYDCPYGHCSSGVDSAGEIDAWGHGTEVIVSS
VL: ALTQPSSVSANPGETVKITCSGGGSEEEQYYYGWYQQKPGSAPVTLIYQDEERPSDIPSRFSGSTSGSTATLTITGVQAGDEADYYCGSWDSEDEDHFGAGTTLTVL
modifications: Low-PI VH, 1-30 VH, 1-17 VH, 1-32 VH, 4-11 VH, 6-10 VH; 1-30 VL
B1: in assay [1] (general trend, results not statistically significant), the “wave I amplitude vs control animals” value is reported as “decreased wave I amplitude”. Also, the “ABR threshold vs control animals” value in assay [1] (one-month post administration) and in assay [1] (two-month post administration) was “significantly decreased” in each case. Moreover, the “ABR threshold vs control antibody” value in assay [2] (30 mg/kg i.v. weekly x5) is on record as “did not appear to be any significant differences”. In addition, the “Wave I amplitude vs control antibody” value in assay [2] (setting [6]) is listed as “noticeable differences were observed”. Also, in assay [2] (setting [6]), the “Wave IV amplitude vs control antibody” value is “noticeable differences were observed”.

B2: 2-13: anti-FAM19A5 antibody; VH SEQ ID NO: 35, VL SEQ ID NO: 39 (antibody, V domains shown)
VH: AVTLDESGGGLQTPGGALSLVCKASGFTFSSHGMFWVRQTPGKGLEYVAEITNDGSGTNYGSAVKGRATISRDNGQSTVRLQLNNLRAEDTGTYFCARSTYECPGGFSCWGDTGQIDAWGHGTEVIVSS
VL: ALTQPSSVSANPGETVKITCSGGSYSYGWFQQKSPGSALVTVIYWDDERPSDIPSRFSGALSGSTNTLTITGVQADDEAVYFCGTEDISGTAGVFGAGTTLTVL
modifications: 2-13 VH; 2-13 VL
In the case of B2, in assay [3], the “binding to FAM19A5 mutant M8” value is on record as “failed to bind”. Besides, the “binding to FAM19A5 mutants M1-M3 and M5-M7” value in assay [4] is “moderate to high binding”. Moreover, the “binding to FAM19A5 mutant M4” value in assay [5] was “failed to bind”.

Source of the values: patent publication US20260265360A1, “USE OF ANTI-FAM19A5 ANTAGONISTS FOR TREATING HEARING DISORDERS” (NEURACLE SCIENCE CO., LTD., priority 2023, published 2026).
